# Measured values reported in patent US20050054023.
# Assays:
# [1] = tested on: T1, EGF RECEPTOR (Thr669) peptide RRELVEPLTPSGEA
# T1 sequence: RRELVEPLTPSGEA
# [2] = tested on: T2, TH (rat) Ser8 peptide PTPSAPSPQPK
# T2 sequence: PTPSAPSPQPK
# [3] = tested on: T3, TH (rat) Ser19 peptide RRAVSEQDAK
# T3 sequence: RRAVSEQDAK
# [4] = tested on: T4, rat TH-Ser31 peptide KQAEAVTSPR
# T4 sequence: KQAEAVTSPR
# [5] = tested on: T5, TH (rat) Ser40 peptide GRRQSLIEDAR
# T5 sequence: GRRQSLIEDAR
# [6] = tested on: T6, MBPtide (Thr97) APRTPGGRR
# T6 sequence: APRTPGGR
# [7] = tested on: T7, type 1 human TH-Ser31 peptide EAIMSPRFIGRR
# T7 sequence: EAIMSPRFIGRR
# [8] = tested on: T8, type 1 human TH-Ser31 peptide AIMSPRFIGRR
# T8 sequence: AIMSPRFIGRR
# [9] = tested on: T9, type 1 human TH-Ser31 peptide EAIMSPRFK
# T9 sequence: EAIMSPRFK
# [10] = tested on: T10, peptide QATGPLSPGPFRR-NH2
# T10 sequence: QATGPLSPGPFRR
# ERKtide = tested on: T11, ERKtide
# T11 sequence: ATGPLSPFGRR
# [11] = tested on: T12, type 1 human TH-Ser31 peptide YQAEAIMSPRFIGRR-NH2
# T12 sequence: YQAEAIMSPRFIGRR
# [12] = tested on: T13, rat TH-Ser31 peptide AVTSPRFIGRR
# T13 sequence: AVTSPRFIGRR
# [13] = tested on: T14, type 2 human TH-Ser31 peptide YIMVRGQSPR
# T14 sequence: YIMVRGQSPR
# [14] = tested on: T15, type 1 human TH-Ser31 peptide QAEAIMSPRFGRR-NH2
# T15 sequence: QAEAIMSPRFGRR
# [15] = tested on: T16, type 2 human TH-Ser31 peptide IMVRGQSPR
# T16 sequence: IMVRGQSPR
# [16] = tested on: T17, peptide YQATGPLSPGPFRR-NH2
# T17 sequence: YQATGPLSPGPFRR
# [17] = tested on: T18, type 1 human TH-Ser31 peptide YQAEAIMSPRFIGRRQ
# T18 sequence: YQAEAIMSPRFIGRRQ
# [18] = tested on: T19, type 2 human TH-Ser31 peptide EAIMVRGQSPRFK
# T19 sequence: EAIMVRGQSPRFK
# peptide QATGPLSPGFRR-NH2 = tested on: T20, peptide QATGPLSPGFRR-NH2
# T20 sequence: QATGPLSPGFRR
# [19] = tested on: T21, rat TH-Ser31 peptide EAVTSPRFIGRR
# T21 sequence: EAVTSPRFIGRR
# [20] = tested on: T22, peptide YQATGPLSPGFRR-NH2
# T22 sequence: YQATGPLSPGFRR
# extracellular signal-regulated protein kinase 2 (purified, recombinant, activated ERK2), sequence (P28482 2-360): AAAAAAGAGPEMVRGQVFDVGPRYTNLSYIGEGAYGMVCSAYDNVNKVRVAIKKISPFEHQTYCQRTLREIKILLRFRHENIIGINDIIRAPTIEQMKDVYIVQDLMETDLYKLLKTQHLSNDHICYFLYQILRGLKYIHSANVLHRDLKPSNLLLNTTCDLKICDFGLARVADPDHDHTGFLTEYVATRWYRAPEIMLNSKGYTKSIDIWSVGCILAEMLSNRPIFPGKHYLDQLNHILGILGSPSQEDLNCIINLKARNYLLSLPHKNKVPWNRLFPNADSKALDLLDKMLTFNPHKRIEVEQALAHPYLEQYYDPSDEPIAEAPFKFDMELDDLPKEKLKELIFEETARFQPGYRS
# extracellular signal-regulated protein kinase 1 (purified, activated ERK1), sequence (P27361 2-379): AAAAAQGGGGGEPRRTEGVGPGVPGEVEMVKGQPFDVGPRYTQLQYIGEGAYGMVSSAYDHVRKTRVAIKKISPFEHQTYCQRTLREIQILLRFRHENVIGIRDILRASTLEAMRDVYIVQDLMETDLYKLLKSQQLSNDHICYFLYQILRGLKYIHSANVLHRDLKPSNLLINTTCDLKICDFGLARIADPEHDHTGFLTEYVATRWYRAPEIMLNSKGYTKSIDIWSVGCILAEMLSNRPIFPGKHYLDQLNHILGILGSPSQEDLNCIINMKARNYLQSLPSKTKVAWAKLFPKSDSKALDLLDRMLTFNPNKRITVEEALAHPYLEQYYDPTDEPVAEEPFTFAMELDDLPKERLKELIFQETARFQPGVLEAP
substance,measurement,setting,value
"extracellular signal-regulated protein kinase 1 (purified, activated ERK1)",RELATIVE ^32P INCORPORATION (% OF MBP),myelin basic protein,100 % OF MBP
same,RELATIVE ^32P INCORPORATION (% OF MBP),[1],13 % OF MBP
same,RELATIVE ^32P INCORPORATION (% OF MBP),[2],< 1 % OF MBP
same,RELATIVE ^32P INCORPORATION (% OF MBP),[3],< 1 % OF MBP
same,RELATIVE ^32P INCORPORATION (% OF MBP),[4],5 % OF MBP
same,RELATIVE ^32P INCORPORATION (% OF MBP),[5],< 1 % OF MBP
same,RELATIVE ^32P INCORPORATION (% OF MBP),[6],28 % OF MBP
same,^32P incorporation,[6],^32P incorporation into MBPtide (SEQ ID NO: 2) was 330 nmol/min/mg
"extracellular signal-regulated protein kinase 2 (purified, recombinant, activated ERK2)",RELATIVE ^32P INCORPORATION (% 3.3 µmol/min/mg) (% 3.3 µmol/min/mg),[7],41
same,RELATIVE ^32P INCORPORATION (% 3.3 µmol/min/mg) (% 3.3 µmol/min/mg),[8],29
same,Km(app),[9],1400 µM
same,RELATIVE ^32P INCORPORATION (% 3.3 µmol/min/mg) (% 3.3 µmol/min/mg),[9],21
same,Vmax(app) Relative,[9],42 Relative
same,"RELATIVE ^32P INCORPORATION (% 3.0 µmol/min/mg), Mean (% 3.0 µmol/min/mg)",[10],143
same,Km(app),ERKtide,600 µM
same,Vmax(app) Relative,ERKtide,82 Relative
same,apparent Vmax,ERKtide,The apparent Vmax of ERKtide (SEQ ID NO: 23) was 9.4 µmol/min/mg
same,"RELATIVE ^32P INCORPORATION (% 3.0 µmol/min/mg), Mean (% 3.0 µmol/min/mg)",[11],117
same,RELATIVE ^32P INCORPORATION (% 3.3 µmol/min/mg) (% 3.3 µmol/min/mg),[11],100
same,^32P incorporation,[11],100 percent 32p incorporation reflects 3.3 µmol/min/mg
same,RELATIVE ^32P INCORPORATION (% 3.3 µmol/min/mg) (% 3.3 µmol/min/mg),[12],9
same,RELATIVE ^32P INCORPORATION (% 3.3 µmol/min/mg) (% 3.3 µmol/min/mg),[13],1
same,"RELATIVE ^32P INCORPORATION (% 3.0 µmol/min/mg), Mean (% 3.0 µmol/min/mg)",[14],107
same,RELATIVE ^32P INCORPORATION (% 3.3 µmol/min/mg) (% 3.3 µmol/min/mg),[15],1
same,"RELATIVE ^32P INCORPORATION (% 3.0 µmol/min/mg), Mean (% 3.0 µmol/min/mg)",[16],164
same,Km(app),[17],1000 µM
same,"RELATIVE ^32P INCORPORATION (% 3.0 µmol/min/mg), Mean (% 3.0 µmol/min/mg)",[17],100
same,RELATIVE ^32P INCORPORATION (% 3.3 µmol/min/mg) (% 3.3 µmol/min/mg),[17],80
same,Vmax(app) Relative,[17],80 Relative
same,^32P incorporation,[17],100 percent ^32P incorporation reflects 3.0 µmol/min/mg
same,Km(app),[4],1800 µM
same,RELATIVE ^32P INCORPORATION (% 3.3 µmol/min/mg) (% 3.3 µmol/min/mg),[4],7
same,Vmax(app) Relative,[4],9 Relative
same,RELATIVE ^32P INCORPORATION (% 3.3 µmol/min/mg) (% 3.3 µmol/min/mg),[18],2
same,"RELATIVE ^32P INCORPORATION (% 3.0 µmol/min/mg), Mean (% 3.0 µmol/min/mg)",peptide QATGPLSPGFRR-NH2,182
same,RELATIVE ^32P INCORPORATION (% 3.3 µmol/min/mg) (% 3.3 µmol/min/mg),[19],20
same,"RELATIVE ^32P INCORPORATION (% 3.0 µmol/min/mg), Mean (% 3.0 µmol/min/mg)",[20],215
same,Km(app),[6],2000 µM
same,Vmax(app) Relative,[6],46 Relative
